# Reference: patent publication US20210269525A1 (BIOCYTOGEN PHARMACEUTICALS BEIJING, published 2021)
# Residue numbers refer to the chain shown, from its start.
# T1: Cynomolgus CD3 epsilon Protein, His Tag (Acrobiosystems, Cat #CDE-05226) (cynomolgus (Macaca fascicularis), UniProt Q95LI5 22-117)
# T1 construct: also called monkey CD3e; not shown: His tag
# T1 sequence: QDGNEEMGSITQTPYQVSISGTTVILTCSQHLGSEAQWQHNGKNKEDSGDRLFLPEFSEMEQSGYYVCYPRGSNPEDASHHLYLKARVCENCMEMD
# B1: 1B1-H2K2-IgG1-LALA (antibody, V domains shown)
# VH: QVQLVQSGAEVKKPGASVKLSCKASGYTFTSYWMHWVRQAPGQGLEWIGNIYPDSGTTNYGEKFKTRVTLTVDTSTSTAYMELSSLRSEDTAVYYCTRDTSGQYYFDYWGQGTLVTVSS
# VL: DIVMTQSPDSLAVSAGERVTMNCKSSQSLLNSRTRKNYLAWYQHKPGQSPKLLIYWASTRESGVPDRFSGSGSGTDFTLTISSLQAEDVAVYYCVQSFSLRAFGGGTKVEIK
# notes: Humanized; human IgG1 with LALA mutations; also called H2K2 (humanized 1B1)
# B2: 1B1-H1K1-IgG1-LALA (antibody, V domains shown)
# VH: B1 VH with L20V
# VL: B1 VL with V19A
# notes: Humanized; human IgG1 with LALA mutations; also called H1K1 (humanized 1B1)
# B3: 1B1-H4K1-IgG1-LALA (antibody, V domains shown)
# VH: B1 VH with K12V, A40R, P41H, V68G
# VL: B1 VL with V19A
# notes: Humanized; human IgG1 with LALA mutations; also called H4K1 (humanized 1B1)
# B4: 1B1-H2K1-IgG1-LALA (antibody, V domains shown)
# VH: B1 VH
# VL: B1 VL with V19A
# notes: Humanized; human IgG1 with LALA mutations; also called H2K1 (humanized 1B1)
# B5: 1B1-H3K1-IgG1-LALA (antibody, V domains shown)
# VH: B1 VH with A40R, P41H
# VL: B1 VL with V19A
# notes: Humanized; human IgG1 with LALA mutations; also called H3K1 (humanized 1B1)
# B6: 1B1-H4K3-IgG1-LALA (antibody, V domains shown)
# VH: B1 VH with K12V, A40R, P41H, V68G
# VL: B1 VL with L84V, V109L
# notes: Humanized; human IgG1 with LALA mutations; also called H4K3 (humanized 1B1)
# B7: 1B1-H3K2-IgG1-LALA (antibody, V domains shown)
# VH: B1 VH with A40R, P41H
# VL: B1 VL
# notes: Humanized; human IgG1 with LALA mutations; also called H3K2 (humanized 1B1)
# B8: 1B1-H4K2-IgG1-LALA (antibody, V domains shown)
# VH: B1 VH with K12V, A40R, P41H, V68G
# VL: B1 VL
# notes: Humanized; human IgG1 with LALA mutations; also called H4K2 (humanized 1B1)
# B9: 1B1-H1K3-IgG1-LALA (antibody, V domains shown)
# VH: B1 VH with L20V
# VL: B1 VL with L84V, V109L
# notes: Humanized; human IgG1 with LALA mutations; also called H1K3 (humanized 1B1)
# Biological target: T2, human CD3e (T-cell surface glycoprotein CD3 epsilon chain) (human, UniProt P07766 23-207)
# Test: cell-based or functional assay
row,"EC50, luciferase of Jurkat-Luc-NFAT cells; antibody from supernatant [µg/mL]",Binder
1,> 5.24,B1
2,1.42,B2
3,2.4,B3
4,> 2.79,B4
5,> 3.06,B5
6,> 4.54,B6
7,> 3.08,B7
8,> 3,B8
9,> 6.94,B9

# Biological target: T3, Histidine-tagged human CD3e protein (human, UniProt P07766 23-126)
# T3 construct: also called hCD3e-His; not shown: His tag
# Test: SPR (Biacore), human CD3e
Kd [nM],koff [s⁻¹],kon [M⁻¹ s⁻¹],Binder
1.65,0.000881,535000,B1
1.42,0.000621,438000,B2
0.809,0.000653,807000,B3
1.49,0.000862,579000,B4
1.37,0.000914,665000,B5
1.16,0.000583,502000,B6
2.96,0.00062,209000,B7
0.959,0.000614,640000,B8
3.28,0.00051,155000,B9

# Biological target: T1, Cynomolgus CD3 epsilon Protein, His Tag …
# Test: SPR (Biacore), cynomolgus CD3e His tag
# Protocol: The binding affinity of the anti-hCD3e antibodies with monkey CD3e (Cynomolgus CD3 epsilon Protein (SEQ ID NO: 39 AA Gln 22-Asp 117), His Tag, Acrobiosystems, Cat #CDE-05226) were also measured using surface plasmon resonance (SPR) using Biacore (Biacore, INC, Piscataway N.J.) by the methods as described in the examples.
Kd [nM],koff [s⁻¹],kon [M⁻¹ s⁻¹],Binder
6.66,0.000665,99800,B1
9.51,0.000869,91400,B2
7.03,0.000999,142000,B4
4.39,0.000739,169000,B9

# Biological target: T2, human CD3e (T-cell surface glycoprotein …)
# Test: flow cytometry, human PBMC, antibody 1 µg/mL, anti-human IgG Fc-Alexa Fluor647 (1:500), anti-hTcRβ-PerCP (1:30)
# Protocol: (§1) PBMC cells were collected from a human subject. After being thawed, the cells were cultured for 3-4 hours. The medium was then discarded, and the cells were resuspended in phosphate-buffered saline (PBS). The cell concentration was then adjusted to 2×10⁶/25 μl PBS.
# (§2) A 96-well plate was prepared. 25 ul of cell suspension was added to each well. […] The cells and the antibodies were incubated. After centrifuge, the residues were discarded. The samples were washed again. 25 ul of PBS was then added to each well to resuspend cells.
# (§3) Anti-human IgG Fc-Alexa Fluror647 (1:500) and anit-hTcRβ PerCP (1:30) were then added to each well. The cells and the antibodies were incubated and then the cells were washed again by PBS. 300 ul of PBS was then added to each well to resuspend the cells. FACS was performed.
"upper left quadrant, percent of cells AF647+ / hTcRβ-PerCP- [%]","upper right quadrant, percent of cells AF647+ / hTcRβ-PerCP+ [%]",Binder
10.2,61,B1
12,58,B2
10.2,64.4,B3
10.8,61.5,B4
11,61.2,B5
10.2,61.9,B6
11.4,58.1,B7
10.4,61.7,B8
11,58.6,B9

# Biological target: T2, human CD3e (T-cell surface glycoprotein …)
# Test: flow cytometry, human PBMC, antibody 10 µg/mL, anti-human IgG Fc-Alexa Fluor647 (1:500), anti-hTcRβ-PerCP (1:30)
# Protocol: as §1
# A 96-well plate was prepared. 25 ul of cell suspension was added to each well. Anti-hCD3e antibodies with different combinations of humanized 1B1 heavy chain variants and humanized 1B1 light chain variants were diluted to 20 ug/ml (2×) in PBS, and were added to the 96-well plate. The cells and the antibodies were incubated. After centrifuge, the residues were discarded. The samples were washed again. 25 ul of PBS was then added to each well to resuspend cells.
# as §3
"upper left quadrant, percent of cells AF647+ / hTcRβ-PerCP- [%]","upper right quadrant, percent of cells AF647+ / hTcRβ-PerCP+ [%]",Binder
9.49,63.3,B1
8.68,61.6,B2
8.51,64.1,B3
8.53,65.4,B4
7.75,65.2,B5
10.7,62.4,B6
9.23,62,B7
11,59.7,B8
10.5,60,B9

# Biological target: T2, human CD3e (T-cell surface glycoprotein …)
# Test: flow cytometry, human PBMC, antibody 0.1 µg/mL, anti-human IgG Fc-Alexa Fluor647 (1:500), anti-hTcRβ-PerCP (1:30)
# Protocol: as §1, §2, §3
"upper left quadrant, percent of cells AF647+ / hTcRβ-PerCP- [%]","upper right quadrant, percent of cells AF647+ / hTcRβ-PerCP+ [%]",Binder
14.1,47.1,B1
11.9,54.8,B2
13.1,54.1,B3
9.82,59.2,B4
11.8,55.5,B5
11.9,54.7,B6
10.2,57.7,B7
12.6,54,B8
13.9,50,B9

# Biological target: T4, monkey CD3e (Macaca fascicularis) on PBMC (Macaca fascicularis, UniProt Q95LI5 22-198)
# T4 construct: Target on PBMC from Macaca fascicularis; also called mfCD3e; monkey PBMC
# Test: flow cytometry, Macaca fascicularis PBMC, antibody concentration not given, anti-human IgG Fc-Alexa Fluor647 (1:500), anti-hTcRβ-PerCP (1:30)
# Protocol: A 96-well plate was prepared. 25 ul of cell suspension was added to each well. Anti-hCD3 antibodies were added to the 96-well plate. The cells and the antibodies were incubated for 15 minutes at 4° C. 185 ul PBS was then added to each well. After centrifuge at 2000 rpm for 5 minutes, the medium was discarded. The samples were washed again. 25 ul of PBS was then added to resuspend cells.
# Anti-human IgG Fc-Alexa Fluror647 (1:500) and anti-hTcRβ PerCP (1:30) were then added to each well. The cells and the antibodies were incubated for 15 minutes at 4° C. 185 ul PBS was then added to each well. After centrifuge, the residues were discarded. The samples were washed again. 25 ul of PBS was then added to resuspend cells. […] In contrast, anti-hTcRβ PerCP cannot bind to monkey PBMC.
"upper left quadrant, percent of cells AF647+ / hTcRβ-PerCP- [%]","upper right quadrant, percent of cells AF647+ / hTcRβ-PerCP+ [%]",Binder
84.5,11.1,B1
69.5,26.2,B2
78.5,18.3,B3
71,25.6,B4
78.8,18.3,B5
87.1,10.1,B6
89.5,7.53,B7
73.2,24.4,B8
83.3,13.6,B9
